Measurements as given in the supplement of paper PMC10899765.

Experiments:
Settings in all cases: 20 nM; 72 h
MCF10A [1] = experiment: percent viability (nuclei count relative to siNT); higher = more viable cells
Description: (§1)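 After 72 h, cells were fixed and stained with Hoechst and anti-fibrillarin, and nucleoli per nucleus were counted with CellProfiler. Values are plate-adjusted percent effect for the one-nucleolus and 5+ nucleoli phenotypes, normalised to siNT (0%) and to the positive controls siNOL11 or siKIF11 (100%), as the mean of biological triplicates. Percent viability is the nuclei count relative to siNT.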

MCF10A [2] = experiment: 5+ nucleoli phenotype percent effect (relative to siNT 0% and siKIF11 100%); higher = more cells with five or more nucleoli
Description: as §1

MCF10A [3] = experiment: one-nucleolus phenotype percent effect (relative to siNT 0% and siNOL11 100%); higher = more cells with one nucleolus (ribosome biogenesis inhibition)
Description: as §1

Sequence | percent viability (MCF10A [1]) [%] | 5+ nucleoli phenotype percent effect (MCF10A [2]) [%] | one-nucleolus phenotype percent effect (MCF10A [3]) [%]
GUGAGUGGGAGCCGGUGGGGCUG [hsa-miR-4758-5p] | 107 | 48.5 | -17.7
GUGAGUGUGGAUCCUGGAGGAAU [hsa-miR-4658] | 52.7 | 0.899 | -8.09
GUGAGUGUGGAUUUGGCGGGGUU [hsa-miR-6790-5p] | 31.8 | -26 | 18.2
GUGCAAAAGUCAUCACGGUU [hsa-miR-548aw] | 57.6 | -29.9 | -0.384
GUGCAUGGCUGUAUAUAUAACA [hsa-miR-5011-3p] | 56.9 | 19.5 | 0.75
GUGCAUUGCUGUUGCAUUGC [hsa-miR-33b-5p] | 48.5 | 36 | -2.4
GUGCAUUGUAGUUGCAUUGCA [hsa-miR-33a-5p] | 46 | -0.156 | -0.977
GUGCCACCUUAACUGCAGCCAAU [hsa-miR-4715-3p] | 53.4 | -23.5 | 6.34
GUGCCAGCUGCAGUGGGGGAG [hsa-miR-1202] | 76.5 | 44.3 | -8.53
GUGCGGAACGCUGGCCGGGGCG [hsa-miR-6850-5p] | 45.3 | -19.5 | 5.11
GUGCGUGGUGGCUCGAGGCGGGG [hsa-miR-6821-5p] | 82.1 | 24.3 | -27.7
GUGCUUCAUCGUAAUUAACCUUA [hsa-miR-3977] | 49 | -18.9 | 2.65
GUGGAAAGCAUGCAUCCAGGGUGU [hsa-miR-3978] | 61.1 | -30.5 | 15
GUGGACCAGGAUGGCAAGGGCU [hsa-miR-4776-5p] | 77.7 | 14.5 | -5.58
GUGGACCUGGCUGGGAC [hsa-miR-4535] | 65.5 | 17.4 | -11
GUGGAGUCCUGGGGAAUGGAGA [hsa-miR-3198] | 25.5 | -28.7 | 22
GUGGCUCUGUAGUAAGAUGGA [hsa-miR-8057] | 44.7 | 6.17 | 6.14
GUGGCUGCACUCACUUCCUUC [hsa-miR-647] | 46 | -9.97 | 33.1
GUGGGAUUUCUGAGUAGCAUC [hsa-miR-5089-5p] | 36.5 | -4.04 | 3.12
GUGGGCGGGGGCAGGUGUGUG [hsa-miR-1228-5p] | 64.8 | 15.3 | -5.58
GUGGGCUGGGCUGGGCUGGGCC [hsa-miR-3620-5p] | 31.3 | -31.1 | 27.5
GUGGGGCCAGGCGGUGG [hsa-miR-1227-5p] | 78.5 | 55.1 | -31
GUGGGGGAGAGGCUGUC [hsa-miR-1275] | 20.5 | -28.2 | 43
GUGGGUACGGCCCAGUGGGGGG [hsa-miR-1225-5p] | 94.3 | 64.9 | -23.1
GUGGGUAGGGUUUGGGGGAGAGCG [hsa-miR-1229-5p] | 67.9 | 53.7 | -23.1
GUGGGUGCUGGUGGGAGCCGUG [hsa-miR-6741-5p] | 43.5 | -22.2 | 6.09
GUGGGUUGGGGCGGGCUCUG [hsa-miR-3940-5p] | 52.7 | -4.07 | -5.1
GUGGUCUCUUGGCCCCCAG [hsa-miR-6848-3p] | 77.3 | 34.8 | -17.9
GUGGUUAUCCCUGCUGUGUUCG [hsa-miR-487a-5p] | 42 | 24.8 | -14.4
GUGGUUAUCCCUGUCCUGUUCG [hsa-miR-487b-5p] | 37.4 | 17.4 | -1.37
